Reference: article PMC5599369

Molecular target: gramicidin A (Bacillus brevis)
Experiment: single-channel electrophysiology

With gramicidin A (peptide) the channel (dimer) lifetime was under 3 ms.
